target: T1, human CD28 on Jurkat reporter cells (human, UniProt P10747 19-220); experiment: flow cytometry, MFI (PE) of PE-conjugated anti-human secondary, CHO cells stably overexpressing human CD28; monovalent one-armed IgG from supernatant
T1 construct: Endogenous CD28 of Jurkat NFAT / Jurkat IL2 reporter cells; also called hu CD28
Method: Binding was assessed by flow cytometry with a FACS Fortessa (BD, Software FACS Diva). Binding curves were obtained using GraphPadPrism6.

Row | binding result | Binder
1 | binds | CD28(SA)_variant_30 (antibody, human IgG1, kappa, L234A L235A, monovalent one-armed IgG-like construct (hu IgG1 PGLALA), tested from HEK supernatant without purification; also called P1AE3086) heavy: not shown light: DIQMTQSPSSLSASVGDRVTITCRASQNIYVWLNWYQQKPGKAPKLLIYKASNLYSGVPSRFSGSRSGTDFTLTISSLQPEDFATYYCQQGQTYPYTFGQGTKLEIKRTVAAPSVFIFPPSDRKLKSGTASVVCLLNNFYPREAKVQWKVDNALQSGNSQESVTEQDSKDSTYSLSSTLTLSKADYEKHKVYACEVTHQGLSSPVTKSFNRGEC DKTHTCPPCPAPEAAGGPSVFLFPPKPKDTLMISRTPEVTCVVVDVSHEDPEVKFNWYVDGVEVHNAKTKPREEQYNSTYRVVSVLTVLHQDWLNGKEYKCKVSNKALGAPIEKTISKAKGQPREPQVCTLPPSRDELTKNQVSLSCAVKGFYPSDIAVEWESNGQPENNYKTTPPVLDSDGSFFLVSKLTVDKSRWQQGNVFSCSVMHEALHNRFTQKSLSLSP
2 | binds | CD28(SA)_variant_27 (antibody, human IgG1, kappa, L234A L235A, monovalent one-armed IgG-like construct (hu IgG1 PGLALA), tested from HEK supernatant without purification; also called P1AE3083) heavy: not shown light: not shown DKTHTCPPCPAPEAAGGPSVFLFPPKPKDTLMISRTPEVTCVVVDVSHEDPEVKFNWYVDGVEVHNAKTKPREEQYNSTYRVVSVLTVLHQDWLNGKEYKCKVSNKALGAPIEKTISKAKGQPREPQVCTLPPSRDELTKNQVSLSCAVKGFYPSDIAVEWESNGQPENNYKTTPPVLDSDGSFFLVSKLTVDKSRWQQGNVFSCSVMHEALHNRFTQKSLSLSP
3 | binds | CD28(SA)_variant_26 (antibody, human IgG1, kappa, L234A L235A, monovalent one-armed IgG-like construct (hu IgG1 PGLALA), tested from HEK supernatant without purification; also called P1AE3082) heavy: not shown light: not shown DKTHTCPPCPAPEAAGGPSVFLFPPKPKDTLMISRTPEVTCVVVDVSHEDPEVKFNWYVDGVEVHNAKTKPREEQYNSTYRVVSVLTVLHQDWLNGKEYKCKVSNKALGAPIEKTISKAKGQPREPQVCTLPPSRDELTKNQVSLSCAVKGFYPSDIAVEWESNGQPENNYKTTPPVLDSDGSFFLVSKLTVDKSRWQQGNVFSCSVMHEALHNRFTQKSLSLSP

Second part, the binder before the results:

Row | Binder | binding result
4 | CD28(SA)_variant_25 (antibody, human IgG1, kappa, L234A L235A, monovalent one-armed IgG-like construct (hu IgG1 PGLALA), tested from HEK supernatant without purification; also called P1AE3081) heavy: not shown light: not shown DKTHTCPPCPAPEAAGGPSVFLFPPKPKDTLMISRTPEVTCVVVDVSHEDPEVKFNWYVDGVEVHNAKTKPREEQYNSTYRVVSVLTVLHQDWLNGKEYKCKVSNKALGAPIEKTISKAKGQPREPQVCTLPPSRDELTKNQVSLSCAVKGFYPSDIAVEWESNGQPENNYKTTPPVLDSDGSFFLVSKLTVDKSRWQQGNVFSCSVMHEALHNRFTQKSLSLSP | binds
5 | CD28(SA)_variant_29 (antibody, human IgG1, kappa, L234A L235A, monovalent one-armed IgG-like construct (hu IgG1 PGLALA), tested from HEK supernatant without purification; also called P1AE3085) heavy: not shown light: not shown DKTHTCPPCPAPEAAGGPSVFLFPPKPKDTLMISRTPEVTCVVVDVSHEDPEVKFNWYVDGVEVHNAKTKPREEQYNSTYRVVSVLTVLHQDWLNGKEYKCKVSNKALGAPIEKTISKAKGQPREPQVCTLPPSRDELTKNQVSLSCAVKGFYPSDIAVEWESNGQPENNYKTTPPVLDSDGSFFLVSKLTVDKSRWQQGNVFSCSVMHEALHNRFTQKSLSLSP | binds
6 | CD28(SA)_variant_31 (antibody, human IgG1, kappa, L234A L235A, monovalent one-armed IgG-like construct (hu IgG1 PGLALA), tested from HEK supernatant without purification; also called P1AE3087) heavy: not shown light: not shown DKTHTCPPCPAPEAAGGPSVFLFPPKPKDTLMISRTPEVTCVVVDVSHEDPEVKFNWYVDGVEVHNAKTKPREEQYNSTYRVVSVLTVLHQDWLNGKEYKCKVSNKALGAPIEKTISKAKGQPREPQVCTLPPSRDELTKNQVSLSCAVKGFYPSDIAVEWESNGQPENNYKTTPPVLDSDGSFFLVSKLTVDKSRWQQGNVFSCSVMHEALHNRFTQKSLSLSP | binds
